Measured values as given in patent US20220228157A1, “GENE EDITING IN DIVERSE BACTERIA” (priority 2019, published 2022).

System: Agrobacterium tumefaciens
Assay: Oligo-recombineering efficiency of SSAP/SSB library members
Assay type: cell-based
Conditions: A. tumefaciens, after two rounds of selection
Protocol: A library of the most broadly-acting three (3) SSAPs and twenty five (25) SSBs was cloned into an Agrobacterium tumefaciens (A. tumefaciens) vector (75-member library). The library was selected for efficient genome editing, and oligo-recombineering. Efficiency was measured from the two most frequent members of the library after two rounds of selection. Editing efficiency of close to 1% was measured in SSAP SEQ ID NO: 143/SSB SEQ ID NO: 310. […] A. tumefaciens is quite distantly related to E. coli, L. lactis, and M. smegmatis (FIG. 7).

B1: SSAP SEQ ID NO: 143/SSB SEQ ID NO: 310: co-expressed SSAP/SSB pair (protein, listed as Helicobacter pullorum)
chain 1: MAENEKQALLQEENKSENVVSTVKRTALATNPFSDTDQFNNIFKMAQLISQSDMIPATYKGKPMNCVIALEQANRMGVSPLMVMQNLYVVKGVPSWSGQGCMMIIQGCGKFRDVDYVYSGEKGTDSRSCKVVATRISDGKRIEGTEITMQMVKSEGWISNTKWKNMPEQMLGYRAATFFARMYCPNELNGFATEGEAEDMNHKPQRIEAINVLGDTAHE
chain 2: MFNKVILVGNLTRDVELRYLPSGAALARLNLATNRRYKKQDGTQAEEVCFIDVNLFGRTAEVANQYLKKGSQVLIEGRLVLESWTDNTGAKRTKHSITAESMQMLGQRQSTQEENHDYGAGDYNNYQEYEKPAYTASAAPKAQPVQKEPELPVIDINDDEIPF
modifications: Clostridium sp FS41
notes: co-expressed SSAP/SSB pair
  Editing efficiency: ~1%
